A word on the Kd: it is the free concentration of one partner at which half of the binding sites on the other are occupied at equilibrium, for simple one-to-one binding. Low readings indicate a tighter complex, high ones a looser complex.

B1: S100B (natural protein)
chain: MSELEKAMVALIDVFHQYSGREGDKHKLKKSELKELINNELSHFLEEIKEQEVVDKVMETLDNDGDGECDFQEFMAFVAMVTTACHEFFEHE

One assay addresses RSK1-CTKD. Briefly: FP; competitive.
Another assay has as its target MK2. Briefly: FP; competitive.
The next assay deals with FOR20. Description: FP; competitive.
Assay [1] concerns the target B1. Description: FP; competitive.
The target in assay [2] is B1. Description: ITC; 310 K; second site. Background: In ITC the heat of successive injections is recorded.
The target in assay [3] is B1. Briefly: FP; direct.
Assay [4] deals with S100P. Briefly: FP; direct.
Assay [5] addresses S100A1. Briefly: FP; direct.
In assay [6] the target is S100A5. Description: FP; direct.
In assay [7] the target is S100P. Briefly: FP; competitive.
The target of assay [8] is S100A1. Briefly: FP; competitive.
Assay [9] has as its target S100A5. Briefly: FP; competitive.
Assay [10] addresses B1. Briefly: ITC; 310 K.
Assay [11] concerns the target S100A6. Description: ITC; 310 K.
Assay [12] addresses S100A3. Description: FP; competitive.
The target in assay [13] is S100A4. Briefly: FP; competitive.
The target in assay [14] is S100A6. Briefly: FP; competitive.
In assay [15] the target is S100A2. Briefly: FP; competitive.
Assay [16] deals with B1. Description: ITC; 298 K.
For assay [17], the target named is S100A5. Description: ITC; 310 K.
The target in assay [18] is S100A4. Briefly: FP; direct.
The target in assay [19] is S100A6. Description: FP; direct.
In assay [20] the target is S100A2. Description: FP; direct.
Assay [21] deals with S100A1. Description: ITC; 310 K.
The next assay deals with S100G. Description: FP; direct.
The target in assay [22] is S100A11. Description: FP; direct.
In another assay the target is S100A13. Briefly: FP; direct.
Assay [23] deals with S100A8. Briefly: FP; direct.
In assay [24] the target is S100A10. Description: FP; direct.
In another assay the target is S100A7. Description: FP; direct.
The target in the next assay is S100A15. Briefly: FP; direct.
Another assay deals with S100A14. Description: FP; direct.
The target of the next assay is S100A12. Briefly: FP; direct.
Assay [25] deals with S100A3. Briefly: FP; direct.
A further assay has as its target S100Z. Briefly: FP; direct.
Another assay deals with S100A9. Briefly: FP; direct.
The target of assay [26] is S100A1. Briefly: ITC; 298 K.
In assay [27] the target is S100A11. Description: FP; competitive.
Assay [28] has as its target S100A8. Description: FP; competitive.
The target of assay [29] is S100A10. Description: FP; competitive.

For the molecule B1, the Kd with RSK1-CTKD came to 1.2 µM; with MK2 it was 3.2 µM; with FOR20, 0.25 µM.

Regarding TRTKIDWNKILS [CapZ (265-276) peptide], the Kd with S100B [1] was found to be 1.8 µM; with S100B [2], 0.94 µM; in the assay with S100B [3], 2.3 µM; in the assay with S100P [4] it was 11 µM; with S100A1 [5], 8.9 µM; with S100A5 [6], 4.7 µM. Moreover, the Kd with S100P [7] came out at 4.1 µM; with S100A1 [8], 5.2 µM; in the assay with S100A5 [9] it was 5.4 µM; with S100B [10], 3.9 µM.

On to MAATAAAVVAEEDTELRDLLVQTLENSGVLNRIKAELRAAVFLALEEQ [FOP (1-48) peptide], for which the Kd with S100B [1] is 1.2 µM; in the assay with S100A6 [11], 0.088 µM; with S100P [7] it was 0.066 µM; in the assay with S100A1 [8], 0.35 µM; with S100A3 [12], 0.27 µM; in the assay with S100A5 [9], 0.56 µM. Further, the dissociation constant (Kd) is 0.048 µM with S100A4 [13], 0.0056 µM in the assay with S100A6 [14] and 0.081 µM with S100A2 [15].

GAMAATYSALNSSKPTPQLKPIESSILAQRRVRKLPSTTL [RSK1 (696-735) peptide] had a Kd with S100B [16] of 12 µM.

As for SEGLMNVLKKIYEDG [SIP (188-202) peptide], the Kd is 21 µM in the assay with S100A5 [17]; > 200 µM with S100B [3]; 38 µM with S100P [4]; 42 µM with S100A5 [6]; 42 µM with S100A4 [18]; 8.7 µM with S100A6 [19]. Further, the Kd with S100A2 [20] worked out at 102 µM; in the assay with S100A5 [9], 40 µM; with S100A4 [13], 11 µM; in the assay with S100A6 [14], 20 µM.

Turning to RRLLFYKYVYKR [NCX1 (254-265) peptide], the Kd was > 200 µM with S100B [1]; 6.4 µM with S100A1 [21]; 7.7 µM with S100B [3]; 24 µM with S100G; 52 µM in the assay with S100A11 [22]; 4 µM with S100P [4]. For the same molecule, the Kd was determined as 87 µM with S100A13; 56 µM in the assay with S100A8 [23]; 53 µM with S100A10 [24]; 30 µM with S100A7; 2.6 µM in the assay with S100A1 [5]; 28 µM with S100A15. Besides, the Kd in the assay with S100A14 amounted to 71 µM; in the assay with S100A12, 170 µM; with S100A3 [25] it was 25 µM; in the assay with S100A5 [6], 4.6 µM; with S100Z, 11 µM; with S100A4 [18], 15 µM. For the same molecule, the Kd in the assay with S100A6 [19] is 27 µM; in the assay with S100A2 [20] it was 5.5 µM; in the assay with S100A9 it was 20 µM; with S100A1 [8] it was 2.6 µM; with S100A5 [9] it was 5.2 µM.

For RKLQRELEDATETADAMNREVSSLKNKLRRGDLPFVVPRRMARK [NMIIA (1894-1937) peptide], the Kd was 2.9 µM with S100B [1]; 4.7 µM with S100B [3]; 0.009 µM with S100A1 [26]; 21 µM with S100G; 49 µM in the assay with S100A11 [22]; 0.99 µM with S100P [4]. Moreover, the Kd with S100A7 was 13.1 µM; in the assay with S100A1 [5], 0.033 µM; in the assay with S100A15, 17 µM; in the assay with S100A14 it was 98 µM; in the assay with S100A3 [25], 5.5 µM; with S100A5 [6], 5.8 µM. For the same molecule, the Kd with S100A4 [18] came to 0.026 µM; in the assay with S100A6 [19], 0.58 µM; with S100A2 [20], 0.057 µM; with S100P [7] it was 0.14 µM; in the assay with S100A1 [8], 0.004 µM; with S100A5 [9], 2.9 µM. In addition, the Kd in the assay with S100A4 [13] was 0.0088 µM; with S100A6 [14], 0.21 µM; with S100A2 [15], 0.013 µM.

Regarding VLQTWLQDLLRRGLVRAAQ [TRPM4 (129-147) peptide], the Kd in the assay with S100B [1] is > 200 µM; with S100A5 [17], 1.4 µM; with S100B [3], 16 µM; with S100A11 [22] it was 2.4 µM; with S100P [4], 0.93 µM; in the assay with S100A8 [23], 3.8 µM. Also, the Kd came to 17 µM in the assay with S100A10 [24]; 0.38 µM with S100A1 [5]; 12 µM with S100A14; 0.91 µM in the assay with S100A3 [25]; 0.6 µM with S100A5 [6]; 5.9 µM in the assay with S100A4 [18]. For the same molecule, the Kd in the assay with S100A6 [19] stood at 1.4 µM; in the assay with S100A2 [20], 1 µM; in the assay with S100A9 it was 21 µM; with S100A11 [27], 106 µM; with S100A8 [28] it was 13 µM; with S100A10 [29], 125 µM. Further, the Kd with S100A3 [12] amounted to 3.4 µM; with S100A5 [9] it was 2.3 µM; with S100A4 [13], 35 µM; with S100A6 [14], 8.4 µM; with S100A2 [15] it was 1.1 µM.

Take NQVRPKLPLLKILHAAGAQ [MDM4 (25-43) peptide]: the Kd in the assay with S100B [1] came out at 0.15 µM; in the assay with S100B [2], 0.63 µM; with S100B [3], 0.2 µM; with S100A1 [5], 91 µM; with S100A5 [6], 61 µM; with S100A2 [20] it was 49 µM. The Kd with S100A1 [8] was 35 µM; with S100A5 [9] it was 65 µM; with S100A2 [15], 53 µM; in the assay with S100B [10], 0.71 µM.

The values above are taken from doi:10.1101/718155 (2019).
